As usually defined, the Km is the concentration of substrate that gives half-maximal velocity.

Substrate in the series: Nc1ncnc2c1ncn2[C@@H]1O[C@H](CO)[C@@H](O)[C@H]1O
Briefly: cells, lysate or membranes named. The settings on record: other: adenosine as substrate; pH 8.0.

Protocol: Preparation of cytosol extracts. For the structure activity relationships studies, approximately 5×10^8 T. gondii were suspended in 1.2 ml of 50 mM N-2-hydroxyethylpiperazine-N'-2-ethanesulfonic acid (HEPES)-Cl (pH 8.0)/1 mM dithiothreitol and homogenized for 30 seconds at setting 10, using a Brinnmann Instruments Polytron homogenizer fitted with a PTA 7K1 probe. The homogenate was then centrifuged at approximately 116,000 g for 1 hour at 5° and the supernatant (cytosol extract) collected and used as the enzyme source. Fresh cytosol extracts were prepared for each experiment.
Adenosine kinase assay. T. gondii adenosine kinase activity was measured by following the formation of [^14 C]AMP from [^14 C]adenosine and ATP. […]
Reactions were started by the addition of [8-^14 C]adenosine, incubated at 37° for 10 minutes and terminated by placing the reaction tubes in a boiling water bath for 2 minutes. […] The substrate and product spots (which accounted for all of the radioactivity on the plates) were identified by UV quenching, cut out, and the radioactivity quantitated by liquid scintillation counting in 20 ml of Scintilene, using a Packard 460 scintillation counter. […] Enzyme velocity was calculated by multiplying the fraction of AMP formed from adenosine times the amount of adenosine in the assay, and dividing by the incubation time. […]

B1: T. gondii adenosine kinase (Toxoplasma gondii) (protein)
chain: MAVDSSNSATGPMRVFAIGNPILDLVAEVPSSFLDEFFLKRGDATLATPEQMRIYSTLDQFNPTSLPGGSALNSVRVVQKLLRKPGSAGYMGAIGDDPRGQVLKELCDKEGLATRFMVAPGQSTGVCAVLINEKERTLCTHLGACGSFRLPEDWTTFASGALIFYATAYTLTATPKNALEVAGYAHGIPNAIFTLNLSAPFCVELYKDAMQSLLLHTNILFGNEEEFAHLAKVHNLVAAEKTALSTANKEHAVEVCTGALRLLTAGQNTGATKLVVMTRGHNPVIAAEQTADGTVVVHEVGVPVVAAEKIVDTNGAGDAFVGGFLYALSQGKTVKQCIMCGNACAQDVIQHVGFSLSFTSLPC
Take B1: the Michaelis constant (Km) stood at 5 µM.

The values above are taken from patent publication US5773424A, “Treatment of toxoplasmosis” (priority 1994, dated 1998).
